Like-named read-outs stand apart in the source and are kept apart here.

Assay [1] deals with recombinant human PD-1 dimer expressed with a C-terminal mouse IgG2a Fc tag (human). As to the kind of experiment: competition ELISA: 1.5 nM hPD-1-mFc to coated hPD-L1-hFc; NBI.
In assay [2] the target is dimeric biotinylated human PD-1 protein with a C-terminal human Fc tag (human). The assay can be described thus: competition ELISA: 200 pM biot-hPD-1-hFc to coated hPD-L1-mFc; NBI.
Assay [3] has as its target recombinant human PD-1 dimer expressed with a C-terminal mouse IgG2a Fc tag (human). As to the kind of experiment: competition ELISA: 100 pM hPD-1-mFc to coated hPD-L2-hFc; NBI.
Assay [4] deals with PD-1 chimera: extracellular domain of human PD-1 with trans-membrane and cytoplasmic domains of human CD300a, on Jurkat/AP1-Luc cells (human) (UniProt Q9UGN4). As to the kind of experiment: cell-based or functional assay.
The target in assay [5] is full length human PD-1 on HEK293/hPD-1 cells (human) (UniProt Q15116). The assay can be described thus: FACS dose response, HEK293/hPD-1 cells; control.
Assay [6] shares this target. As to the kind of experiment: FACS dose response, HEK293/hPD-1 cells; control. The source holds these as a separate data set.

For the substance Isotype control 1 (antibody), the % blocking at 200 nM antibody in assay [1] was -3%. In assay [2], the % blocking at 50 nM antibody came to 19%.
With Isotype control 2 (antibody), the % blocking at 100 nM antibody in assay [3] is -27%.
For hIgG4 isotype control (antibody), the Emax mean [%] @ 100 nM in assay [4] stood at 98%. The Max Geom. Mean MFI @ 100 nM in assay [5] amounted to 809 MFI.
For the substance mIgG1 isotype control (antibody), the Max Geom. Mean MFI @ 100 nM turned out to be 200 MFI in assay [6] and 858 MFI in assay [5].
Regarding mIgG2a isotype control (antibody), the Max Geom. Mean MFI @ 100 nM in assay [6] was determined as 239 MFI; in assay [5], 352 MFI.

For the origin of these results see patent publication US20150203579A1.
